Measurements published in article PMC12158487, “Tracing the aggregation pathway of the scaffold protein DISC1: Structural implications for chronic mental illnesses” (Journal of Structural Biology: X, 2025).
Residue numbers refer to the chain shown, from its start. In names and notes the source's numbering stands. One block for each molecule: values may come before it. Ends that are not written are not given here.

What was measured:
[1] = biological target: DISC1 C-region L807-frameshift, His6 fusion (human) (UniProt Q9NRI5); experiment: ITC; 10 µM His-tagged protein alone in the 200 µL cell, 20 °C, stirred at 300 rpm; heat flow of self-association followed in real time, peak area integrated
[2] = biological target: T1, DISC1 C-region (WT), His6 fusion (human), Q9NRI5; experiment: ITC; 10 µM His-tagged WT-C-region alone in the cell, 30 °C; heat flow of self-association followed in real time, peak area integrated; details: remark: other sources report otherwise
T1 chain: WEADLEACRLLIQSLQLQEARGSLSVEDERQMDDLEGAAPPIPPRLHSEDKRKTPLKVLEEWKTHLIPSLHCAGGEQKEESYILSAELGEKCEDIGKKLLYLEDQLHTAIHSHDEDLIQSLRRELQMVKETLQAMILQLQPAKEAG

[3] = biological target: T1, DISC1 C-region (WT), His6 fusion …; experiment: ITC; 10 µM His-tagged protein alone in the 200 µL cell, 20 °C, stirred at 300 rpm; heat flow of self-association followed in real time, peak area integrated; details: remark: other sources report otherwise
[4] = biological target: T1, DISC1 C-region (WT), His6 fusion …; experiment: dynamic light scattering; 10 µM protein, 20 °C, 500 µL sample, centrifuged at 21,000 x g before measurement; apparent hydrodynamic radii followed over time; details: remark: other sources report otherwise
[5] = biological target: the molecule itself; experiment: ITC; 10 µM His-tagged protein alone in the 200 µL cell, 20 °C, stirred at 300 rpm; heat flow of self-association followed in real time, peak area integrated
[6] = biological target: the molecule itself; experiment: ITC; one-week-old sample of S704C, 10 µM protein alone in the cell, 20 °C; heat flow of self-association followed in real time, peak area integrated

dH [1]: -4440 kJ/mol
Molecule: DISC1 C-region L807-frameshift, His6 fusion (from UniProt Q9NRI5 691-807) (domain or fragment)

dH [2]: -1100 kJ/mol
dH [3]: -2290 kJ/mol
stoichiometry N [4]: 4
B1: DISC1 C-region (WT), His6 fusion, Q9NRI5 691-836 (domain or fragment)
chain: T1 chain

B2: DISC1 C-region S713E, His6 fusion (domain or fragment, human, UniProt Q9NRI5 691-836, looked up)
chain: T1 chain with S23E
notes: Disrupted in schizophrenia 1 (DISC1), human, C-region, res; 691-836, numbered in the context of the full-length protein, with S713E; in the cited work it may be a phosphomimetic made by people (surmise); also called S713E C-region variant; source: E. coli BL21 (DE3) pLysE T1R, purified (Co2+-NTA)
dH [5]: -2140 kJ/mol

B3: DISC1 C-region S704C, His6 fusion (domain or fragment, human, UniProt Q9NRI5 691-836, looked up)
chain: T1 chain with S14C
notes: Disrupted in schizophrenia 1 (DISC1), human, C-region, res; 691-836, numbered in the context of the full-length protein, with S704C; also called S704C C-region; source: E. coli BL21 (DE3) pLysE T1R, purified (Co2+-NTA)
dH [6]: -3640 kJ/mol
dH [5]: -1000 kJ/mol

B4: DISC1 β-core (717-761), His6 fusion (domain or fragment, human, UniProt Q9NRI5 717-761, looked up)
chain: EDERQMDDLEGAAPPIPPRLHSEDKRKTPLKVLEEWKTHLIPSLH
modifications: also: His6 fusion, end not given here
notes: 717-761, numbered in the context of the full-length protein; also called β-core peptide; source: E. coli BL21 (DE3) pLysE T1R, purified (Co2+-NTA)
dH [5]: -3530 kJ/mol
